Data published in patent US12514920B1, “Respiratory syncytial virus mRNA vaccine, and preparation method therefor and use thereof” (Hangzhou Tianlong Pharmaceutical Co., Ltd., priority 2024, dated 2026).

B1: YK-RSV-019 (protein)
chain: QNITEEFYQSTCSAVSKGYLGALRTGWYTCVITIELSNIKENKCNGTDAKVKLIKQELDKYKNAVTDLQLLMQSTPATGSGSAICSGVAVSKVLHLEGEVNKIKSALLSTNKAVVSLSNGVSVCTFKVLDLKNYIDKQLLPIVNKQSCSIPNIEIVIEFQQKNNRLLEITREFSVNAGVTTPVSTYMLTNSELLSLINDMPITNDQKKLMSNNVQIVRQQSYSIMSIIKEEVLAYVVQLPLYGVIDTPCWKLHTSPLCTTNTKEGSNICLTRTDRGWYCDNAGSVSFFPQAETCKVQSNRVFCDTMNSRTLPSEVNLCNVDIFNPKYDCKIMTSKTDVSSSVITSLGAIVSCYGKTKCTASNKNRGIIKTFSNGCDYVSNKGVDTVSVGNTLYCVNKQEGQSLYVKGEPIINFYDPLVFPSSEFDASISQVNEKINQSLAFIRKSDELLHNVNAGKSTTNIMITTIIIVIIVILLSLIAVGLLLY
B2: YK-RSV-034 (protein)
chain: CNITEEFYQSTCSAVSKGYLGALRTGWYTSVITIELSNIKENKCNGTDAKVKLIKQELDKYKNAVTDLQLLMQSTPATGSGSAIASGVAVSKVLHLEGEVNKIKSALLSTNKAVVSLSNGVSVLTFKVLDLKNYIDKQLLPILNKQSCSIPNIETVIEFQQKNNRLLEITREFSVNAGVTTPVSTYMLTNSELLSLINDMPITNDQKKLMSNNVQIVRQQSYSIMSIIKEEVLAYVVQLPLYGVIDTPCWKLHTSPLCTTNTKEGSNICLTRTDRGWYCDNAGSVSFFPQAETCKVQSNRVFCDTMNSRTLPSEVNLCNVDIFNPKYDCKIMTSKTDVSSSVITSLGAIVSCYGKTKCTASNKNRGIIKTFSNGCDYVSNKGVDTVSVGNTLYYVNCQEGQSLYVKGEPIINFYDPLVFPSDEFDASISQVNEKINQSLAFIRKSDELLHNVNAGKSTTNIMITTIIIVIIVILLSLIAVGLLLY
B3: YK-RSV-029 (protein)
chain: QNICEEFYQSTCSAVSKGYLGALRTGWYTSVITIELSNIKENKCNGTDAKVKLIKQELDKYKNAVTDLQLLMQSTPATGSGSAIASGVAVSKVLHLEGEVNKIKSALLSTNKAVVSLSNGVSVLTFKVLDLKNYIDKQLLPILNKQSCSIPNIETVIEFQQKNNRLLEITREFSVNAGVTTPVSTYMLTNSELLSLINDMPITNDQKKLMSNNVQIVRQQSYSIMSIIKEEVLAYVVQLPLYGVIDTPCWKLHTSPLCTTNTKEGSNICLTRTDRGWYCDNAGSVSFFPQAETCKVQSNRVFCDTMNSRTLPSEVNLCNVDIFNPKYDCKIMTSKTDVSSSVITSLGAIVSCYGKTKCTASNKNRGIIKTFSNGCDYVSNKGVDTVSVGNTLYYVNKQEGCSLYVKGEPIINFYDPLVFPSDEFDASISQVNEKINQSLAFIRKSDELLHNVNAGKSTTNIMITTIIIVIIVILLSLIAVGLLLY
B4: YK-RSV-035 (protein)
chain: QCITEEFYQSTCSAVSKGYLGALRTGWYTSVITIELSNIKENKCNGTDAKVKLIKQELDKYKNAVTDLQLLMQSTPATGSGSAIASGVAVSKVLHLEGEVNKIKSALLSTNKAVVSLSNGVSVLTFKVLDLKNYIDKQLLPILNKQSCSIPNIETVIEFQQKNNRLLEITREFSVNAGVTTPVSTYMLTNSELLSLINDMPITNDQKKLMSNNVQIVRQQSYSIMSIIKEEVLAYVVQLPLYGVIDTPCWKLHTSPLCTTNTKEGSNICLTRTDRGWYCDNAGSVSFFPQAETCKVQSNRVFCDTMNSRTLPSEVNLCNVDIFNPKYDCKIMTSKTDVSSSVITSLGAIVSCYGKTKCTASNKNRGIIKTFSNGCDYVSNKGVDTVSVGNTLYYVNKCEGQSLYVKGEPIINFYDPLVFPSDEFDASISQVNEKINQSLAFIRKSDELLHNVNAGKSTTNIMITTIIIVIIVILLSLIAVGLLLY
B5: YK-RSV-032 (protein)
chain: QNITEEFYCSTCSAVSKGYLGALRTGWYTSVITIELSNIKENKCNGTDAKVKLIKQELDKYKNAVTDLQLLMQSTPATGSGSAIASGVAVSKVLHLEGEVNKIKSALLSTNKAVVSLSNGVSVLTFKVLDLKNYIDKQLLPILNKQSCSIPNIETVIEFQQKNNRLLEITREFSVNAGVTTPVSTYMLTNSELLSLINDMPITNDQKKLMSNNVQIVRQQSYSIMSIIKEEVLAYVVQLPLYGVIDTPCWKLHTSPLCTTNTKEGSNICLTRTDRGWYCDNAGSVSFFPQAETCKVQSNRVFCDTMNSRTLPSEVNLCNVDIFNPKYDCKIMTSKTDVSSSVITSLGAIVSCYGKTKCTASNKNRGIIKTFSNGCDYVSNKGVDTVSVGNTLYYVNKQEGQSLYVCGEPIINFYDPLVFPSDEFDASISQVNEKINQSLAFIRKSDELLHNVNAGKSTTNIMITTIIIVIIVILLSLIAVGLLLY

Key:
[1] = system: RSV pre-F antibody (3C12); assay: Binding of epitope Φ of RSV F antigen mutants by flow cytometry; settings: for RSV pre-F antibody (3C12) Epitope Φ (%) binding rate: flow cytometry; for Φ/II (%): ratio of epitope Φ (3C12) to epitope II (11A9) binding rate
How it was run: (§1)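 293T cells were transfected with mRNA-LNP (300 ng mRNA) encoding the RSV F mutants and harvested after 16 h. Cells were stained with fluorescent 3C12 (pre-F-specific epitope Φ) or 11A9 (epitope II, pre-F and post-F) for 2 h at 4 °C in the dark, then washed and read by flow cytometry on 1×10^4 cells per measurement.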

[2] = system: RSV F antibody (11A9); assay: Binding of epitope II of RSV F antigen mutants by flow cytometry; settings: epitope II, antibody 11A9
How it was run: as §1

[3] = system: RSV pre-F antibody (3C12); format: physicochemical; settings: ELISA binding to 3C12; for Stress resistance parameter, Osmotic pressure (mM) 3000: high osmotic pressure 3000 mM; for Stress resistance parameter, Osmotic pressure (mM) 3000 / Stress resistance parameter, Osmotic pressure (mM) 10: room temperature; for Stress resistance parameter, Osmotic pressure (mM) 3000 / Stress resistance parameter, Osmotic pressure (mM) 10 / Stress resistance parameter, pH 3.5 / Stress resistance parameter, pH 10: 60 min; for Stress resistance parameter, Temperature (° C.) 50: incubation at 50° C. for 60 min; for Stress resistance parameter, Osmotic pressure (mM) 10: low osmotic pressure 10 mM; for Stress resistance parameter, pH 3.5: pH 3.5, room temperature; for Stress resistance parameter, pH 10: pH 10, room temperature; for Stress resistance parameter, Temperature (° C.) 4: storage at 4° C. for one week
From the text: To investigate the stability of the RSV F antigen mutants under different pH, temperature, osmotic pressure and other conditions, the mutants were subjected to stress tests under different treatment conditions in this example.
• 293T cells (purchased from ATCC cell bank); • Primary antibody: RSV pre-F antibody (3C12), epitope Φ (purchased from Suzhou Novoprotein Scientific Co., Ltd. (hereinafter referred to as Novoprotein), Cat. No.: DA101); • Standard: RSV pre-F trimer protein (Novoprotein, Cat. No.: DRA230); • Secondary antibody: peroxidase AffiniPure goat anti-human IgG (H+L) (purchased from Yeasen Biotechnology (Shanghai) Co., Ltd. (hereinafter referred to as Yeasen), Cat. No.: N/A); • Experimental group: mRNA vaccines after screening in Example 4;
Coating: A 96-well microplate was coated with a working solution and incubated at 2 to 8° C. for 16 to 20 h.
Plate washing: Phosphate buffered saline PBST was added to each well, and the plate was washed 5 times using a plate washer and patted dry on absorbent paper.
Blocking: After a blocking solution was added, the […] were placed on a constant temperature microplate shaker and incubated at 400 rpm for 1.5 h at 37° C.
Plate washing: PBST was added to each well, and the plate was washed 5 times using a plate washer and patted dry on absorbent paper.
Primary antibody incubation: A primary antibody dilution was added to each well, and the plate was sealed with a sealing film, and then incubated at 400 rpm for 1.5 h at 37° C.
Secondary antibody incubation: A secondary antibody dilution was added to each well, and the plate was sealed with a sealing film, and then incubated at 400 rpm for 45 min at 37° C.
Color development: A chromogenic solution was added, and the plate was sealed with a sealing film, and then placed on a constant temperature microplate shaker and incubated at 400 rpm for 25 min at 37° C.
Reaction stopping: After the color development was completed, a stop buffer was added at […] to the microplate to stop the reaction.
Plate reading: Absorbance values (OD values) were read within 5 min using a multimode microplate reader, with dual wavelengths of 450 nm and 630 nm set.
In this example, stability screening of the mutants through different treatment conditions was defined as a stress test, including storage at 4° C. for one week; incubation at 50° C. for 60 min; treatment at room temperature under low osmotic pressure and high osmotic pressure conditions for 60 min; treatment at room temperature under acid and base conditions for 60 min. The binding of the mutants to the RSV pre-F antibody (3C12) recognizing the epitope Φ was detected by ELISA.

| Molecule | RSV pre-F antibody (3C12) Epitope Φ (%) binding rate [1] [%] | Φ/II (%) [1] [%] | RSV F antibody (11A9) Epitope II (%) binding rate [2] [%] | Stress resistance parameter, Osmotic pressure (mM) 3000 [3] | Stress resistance parameter, Temperature (° C.) 50 [3] | Stress resistance parameter, Osmotic pressure (mM) 10 [3] | Stress resistance parameter, pH 3.5 [3] | Stress resistance parameter, pH 10 [3] | Stress resistance parameter, Temperature (° C.) 4 [3] |
| --- | --- | --- | --- | --- | --- | --- | --- | --- | --- |
| B1 | 84.5 | 93.5 | 90.4 | 0.63 ± 0.04 | 0.58 ± 0.05 | 0.81 ± 0.04 | 0.77 ± 0.05 | 0.88 ± 0.09 | 0.37 ± 0.08 |
| B2 | 82.5 | 90.7 | 91.0 | 0.34 ± 0.15 | 0.68 ± 0.07 | 0.84 ± 0.14 | 0.81 ± 0.09 | 0.91 ± 0.04 | 0.37 ± 0.07 |
| B3 | 79.6 | 91.8 | 86.7 | 0.40 ± 0.01 | 0.57 ± 0.08 | 0.61 ± 0.05 | 0.63 ± 0.03 | 0.82 ± 0.01 | 0.32 ± 0.06 |
| B4 | 79.6 | 91.4 | 87.1 | 0.21 ± 0.06 | 0.39 ± 0.02 | 0.39 ± 0.05 | 0.57 ± 0.03 | 0.82 ± 0.01 | 0.31 ± 0.07 |
| B5 | 86.1 | 90.8 | 94.8 | 0.37 ± 0.02 | 0.78 ± 0.02 | 0.66 ± 0.14 | 1.01 ± 0.35 | 0.98 ± 0.06 | 0.34 ± 0.08 |
